Experimental data taken from the DeepSol protein solubility set.

experiment: soluble on expression in E. coli; label from the status in PepcDB or PDB records

Row | Sequence | soluble on expression in E. coli
1 | MGSDKIHHHHHHMTPITQSEINKAAWGACDTFRGVVDPSIYKDYVLTMLFLKYVSDVWKDHKASYAAHYPDSPELVAAMMERETFKLPETASFDALHGRRHEPGNGERIDKALHAIEEANGSKLRDVFQDISFNSNKLGDEEQKNDILRHLLEDFAKTALDLRPSRVGNLDIIGGAYEYLISRFAATAGKKAGEFYTPAEVSELMARLVDPQPGDDICDPTCGSASLLMKCGRLIREGGSKAYALFGQEAIGSTWALAKMNLFLHGEENHQIEWGDTIRNPKLRTSDDMLRHFDVVVANPPFSLDKWGVESAEADKFARFRRGIPPKTKGDYAFILHMIETLKPKTGRMAVVVPHGVLFRGSSEGKIRHKLIEDNLLDAVIGLPEKLFFGTGIPSAILVFRKDKADDSVLFVDASREFVAGTNQNALDMTLIEKIVATHQTRQTVEKYAYRATLAEIIENDFNLNIPRYVDTFEEEEEIDLMAVRAERMKLKGEMAELEDRMEGYLQELGY | not soluble
2 | MGSDKIHHHHHHMTPRANALPTDAGELYYSYARPADGALPSLSRQKGLLGIITFQTGFVGEGDGAKPEGILQIPLSGRGDDLCELWKTTQPVLAGTFGDITYRCSRDFLFGSIALAVADLPAGNHGLIHPPLQNAAELAYQQIFSLLDRHGYPGLLRIWNFVPDINGVSHGLEHYRQFNIGRQDAFLAHNRLPSRQNIPAASALGSVDGPLVVYFLAARRNSVAVENPRQISAYHYPQEYGPSSPTFSRAGWVDLGQQKILFISGTASIIGHQTRHGGNVAAQARESMANIAAVVAETNRVAAGSPYDLNDLSYKVYLRQFTDLPIVRAELDRLVTPKAPIFYLQADICRADLLVEIEATAGVLHGGMA | not soluble
3 | MGSDKIHHHHHHMTPTADIWFKDTLAAHFTRDGDQTTFSYTADYAGPPIATSLPINSEPVITRSGAIPPFFAGLLPEGRRLSSLRRNIKASADDELSLLLAVGADPVGAVAIFPHGENPQPAPPTVDFDDELDFSAALTESGIADPVALAGVQDKASARTIAVPVASDAILKLSPPEYPYLVENEAACYQLLTKNKLRIELSKVEVLHDKHGRSGLLVHRFDRTPKGKIPVEDAGQVLGIWPADKYLVSYEDIAQALTKVCASPILAMRNLAFQIAVAWLSGNGDLHAKNISIINKGRGFEISPIYDIPATAVYGDTTMALEIQGSKKDLSQKKFLKFCTSIGLPEKTAMSVANAALLATENAAETILASGNFDTRMNRDLARVLKHRRSAWGA | not soluble
4 | MGSDKIHHHHHHMTPVLSLDMEDPIRFIDENGSFEVVKVGHNLAIHGKKIFDELAKRNLKIILDLKFCDIPSTVERSIKSWDHPAIIGFTVHSCAGYESVERALSATDKHVFVVVKLTSMEGSLEDYMDRIEKLNKLGCDFVLPGPWAKALREKIKGKILVPGIRMEVKADDQKDVVTLEEMKGIANFAVLGREIYLSENPREKIKRIKEMRL | soluble
5 | MGSDKIHHHHHHMTQTSSLVINSFREITVNHPLWSHEFLIRCRAGNLFLPDVQILAVQMYKFSKEFNRILASILSCCEDESSQLVILENLFDEMGQGDITQSHPELFRQFTRALGIDDETLAALPTAPETRALIETYLQIPHKYGYLAALGAVCYASEGIVSSLYTQLYKGIIGATPLPKEALIFFEVHIDVDDSHAAKLAAVIEPRIPMNEEDIKVKLAIVEAMDARVQFFNGIQRQISKYSLYPDSWVHFDALL | not soluble
6 | MGSDKIHHHHHHMTQTTPQPDPSRLRDELVRLHGKASPEWDSLVRLDPRFVDAYLKFAGVPQRRNHLDDKTRAFIALAADACATQLYAPGVARHIERALSFGATREELIEVLELVSTIGIHTSNVGVPVLLEVLEEEGLRKGAPPLDERRQKLKAEFETNRGYWHPTWEGLLELDPDLFEAYVEFSSVPWRTGVLSPKIKEFMYCAFDASATHLYVPGLKLHIRNALRYGATAEELMELLEIVSVTGIHGAELGAPLLEAALKRSGAAAGEPHA | not soluble
7 | MGSDKIHHHHHHMTQVHFTLKSEEIQSIIEYSVKDDVSKNILTTVFNQLMENQRTEYIQAKEYERTENRQSQRNGYYERSFTTRVGTLELKVPRTRDGHFSPTVFERYQRNEKALMASMLEMYVSGVSTRKVSKIVEELCGKSVSKSFVSSLTEQLEPMVNEWQNRLLSEKNYPYLMTDVLYIKVREENRVLSKSCHIAIGITKDGDREIIGFMIQSGESEETWTTFFEYLKERGLQGTELVISDAHKGLVSAIRKSFTNVSWQRCQVHFLRNIFTTIPKKNSKSFREAVKGIFKFTDINLAREAKNRLIHDYIDQPKYSKACASLDDGFEDAFQYTVQGNSHNRLKSTNLIERLNQEVRRREKIIRIFPNQTSANRLIGAVLMDLHDEWIYSSRKYINFDK | not soluble
8 | MGSDKIHHHHHHMTRGIALFFWNRKKATKKISPEPEAAQEVWQRKKYRTNYYTYNSAKERGSLRSKKQRKHEIGEYKLEVGLAHLPRCFRRLSNLLLGTKGRFHQIDHVLISPYGIFLLEANNLSGLIVGEETESKWYQAITWRVKTFPNPIMENQVRVQMLQELAGLDQTIPVFSYVTFNRSCSLKVFSGMVFYDIDLPASIMQLAQNQPAVLSDEEILELVERIEKINLTDLGLRNEYAARQRRERMQYRPKYGDIRCSICQKAVNERMARYCLNRPEKFAWKIYCEKHQREMTRVVRREGGREGHGPYPESTDSKKESMD | not soluble
9 | MGSDKIHHHHHHMTRSGIGIRTAQQQSGRLTGQIHVYDGAGKGKSQAALGVVLRSIGLGIRDQWQSRVLLLRFLKGPGRTYDEDAAIEALQQGFPHLIDQVRTGRAEFFGPDAISRFDRQEARRGWDIAKGAIVSGLYSVIVLDELNPILDLGLLPVDEVVQTLRQKPPQVEVIATGRGAPPQLLEIADLHSEMIAHANPAVAPVGMEGIEIYTGEGKGKSTSALGKALQAIGRGIGQDLSHRVLILQWLKGGSGYTEDAAIQALRQSYPHLVDHQRSGRDAIVWRGQQQEIDYIEAERAWEIARAAIASGLYKTIILDELNPTVDLELLPEEPILQALLRKPRDTEVIITGRCKQIPAYFHLASVHSEMVCHKHYAERGIELKRGVDY | not soluble
10 | MGSDKIHHHHHHMTRVEELLSQIKNLKTEKNAIILGHNYMEYSVQLVSDFTGDSYDLAVKAMKTNAKIILFAGVYFMAEQASALNPNKKVLSPDPNAGCTLSDSLDVKTLQEYKEKYPNAPVVLYINTSIYAKALADYIVTSSTAVKVVQKLNADTILFGPDANLANYVQQKVPNKKIIKVPPNGRCIVHANYTKQLVELARKKYPNALLMAHPEAPLEILESADFVGSTNQMIQFSKENKNEEFIVATEIGMINALKIKNPSKKFYPLVTTEACACARCPYMNMINLEKVKRSLEEEVYEVKVPEDIAERVKRAFENTMKLL | not soluble
11 | MGSDKIHHHHHHMTSQLNELVEFLHSPQPAVRQIAIDNLVGFSAGPTSKVFKNDSYRPIKDIIKMIMDPEHGTRVIIQQGVTILVNLSEDKLVRNIILSDDKKFLKFLVWKIVDLTNPNADIMCILLSNLAKDDGILAVLNIKRNSSGEEVDDGLKLAALNKEVFKSLRAMDCLMDCFVKGYDKKLTKYASFNYLAFFFADISRFKLGRMYFIEEQEYDGVVPISKLLVFTEKYDAKVRREGVASTIKNSLFDSETHERLLKDEKINLLPYILLPIASAKDSEIDEEDMFNLPDELQLLPEDKERDPIPAIICCHLESILLLCTTHAGREYLRDKSVYPLVRELHKNVENEDIGELCYRIVNMLMRGEPGAGAVEEMPSKNAEEEEEEESEEEEDDDEEDEIVEVA | not soluble
12 | MGSDKIHHHHHHMTTKLDQLTSWLKERKITEVECLISDLTGIARGKISPTNKFIAEKGMRLPESVLLQTVTGDYVEDDIYYDLLDPADIDMVCRPDENAVFLVPWAIEPTAMVIHDTFDKLGNPIELSPRNILKRVLKMYADKGWRPIVAPEMEFYLTKRSDDPDYPLQAPVGRSGRQETGRQSFSIDAANEFDPLFEDMYDWCEAQGLDLDTLIHEEGTAQMEINFRHGDALDLADQILVFKRTMREAALKHNVAATFMAKPMTGEPGSAMHLHQSIVDVKTGKNIFSNADGTMSELFLHHIGGLQKFIPEVLPLFAPNVNSFRRFLPDTSAPVNVEWGEENRTVGLRVPDSSPENRRVENRLAGADANPYLALAASLLCGYIGMVEGIKPSAQVKGRGYERRNLRLPLTIEAALERMENCKPLEQYLGSKFISGYVAVKRAEHENFKRVISSWEREFLLLSV | not soluble
13 | MGSDKIHHHHHHMTTLGVVYDKFLSPYFAGGGAVHAYEVTIRLKEHFKIVYYPSSPVLSWDKENVEKKAKELESQGIKVADEFYEILEEKRRIGRLKRFLFADKIAREFSKGFKVDADILYEPDHTSLDIFYLARDTKYGVTFHEPPFYNNSLRYFRRLVKFYGVNPYTGKGFHTRFLYNEYIKYLYKRLFKKVKKPTFLAGVSEAPLLESGLGGEVIKPGNAFNPSLLKFRNRGKEDYVVFWSRLNQDKGFHELPDILRIMEKRGGNKVRLILMGKFFDKYNERRFWSKVRKYDLRVDYKGFVKREELADIVSKAKVLIYPSHVDGFSLVALESLALGTPVVAYDIPAIKSVYGGLECVRIVNEFDKESMAENALKFYKMSEKEIEEIMNGDKLMEFLKLHSNWDNVANSVLKILKKYLI | not soluble
14 | MGSDKIHHHHHHMTTTPLPTFSDDQAQAHDRIAEVLRDMGVDIDDDTLVPAKDTKSAVLAVTGKAGSGKTLLLAELVKALERTGVEIVSGDWEGKRRKDRRTVAVLAPTNKAASVLRNRGVPATTIHRILYTPMYDPEFEKVAEWLAGQGERPSIEALTDAAMDRAKEVYETTKSVPAALASAGLRGSDFITGWKRREDGLDIGLVDESSMLDDKQFQDLKEIFPTLVLFGDPAQLAPVGQSGEMIFDRFKGDNLLHLGRVHRQDADNPILDLAHALGDPQLEFRDFEQMIEDAAARDDRVVVSPRANSDMMARSPVLVWRNATRIRLIAAFRAAFGAGDDEILPGEPLICDGIELPLKHRKKRIDLEARGLIKGAPVVYLGPGNKPGFSRLHVMGAETPRFSAASIVKIEKPGEEEPFLPYAARMGAAFLHGAAVTMHKAQGSQWPEVQVFSPDLYAASRAGRMEAGQALWKRLAYVAITRAEERLFWVTRYMLSRPVHDLSTDDLTVKAAPLELEAEEDADTSTM | not soluble
15 | MGSDKIHHHHHHMTVMNAYQELESQGLIYSKEKSGYFVAEQIALKPLEQYSIVSLNSKIEINSLVFKYLKSIQHESVVPFGSAFPDSQLLAAPKLIQIMGQLARQRQSYDQTASLPPGNLALRKLIAQRYCMQGIQTDPDDIVITSGGLDALNLSLQAVAKPGDYILLQQTVFYGAWQAAERLGLKVITIPEHPQHGFDLEAFEQVIHTYPIKVCWLMLNSHNPIGFTVSDEIKYKIAKLLHEHQIYLIEDDVYEELYYGGQKPLSMKYFDQQNLVLHCSSFSKTLGAGFRVGWVYAGKFSDHIQHLQLMSTISVNALIQNALVEFLSHHHYEKHLRTLRLSLERYKKQFYHYLKQHLPAICEIYYYPSGYFLWVKLPHKLDSMQIYEELIQQDIGVAPSPLFSVLPAQQHYLRINCSFEWNEKIQAALDQVIKTIQQRVEASL | not soluble
16 | MGSDKIHHHHHHMTVQRREKGSSITRVLEIIEAISRAERPMSPAELAFLLDIPKPSIHRLLQQLEADNYVQINMRGLLVPGDRMHSIALGVLHSSRFKALRQAILKKLAETIGETCGIAIPDGIEMIYYDRVQTNWPLRVNLPVGSHTPVACTASGKLYLSSLPKERRHRIIGKLSLEKLARNTLIESESLEKELINIQANELGTDNEEFIDGMVACSVPIKDQDGKLFACLFTHAPVIRKSLDELLAFEPALRHAAIELGDLLKEQ | not soluble
